Experimental findings from paper PMC8002998 are described below.

The data set deals with T1, OhrR-C (chromosomal OhrR) (Acinetobacter baumannii ATCC 19606) (UniProt A0A077GRS4).
T1 sequence: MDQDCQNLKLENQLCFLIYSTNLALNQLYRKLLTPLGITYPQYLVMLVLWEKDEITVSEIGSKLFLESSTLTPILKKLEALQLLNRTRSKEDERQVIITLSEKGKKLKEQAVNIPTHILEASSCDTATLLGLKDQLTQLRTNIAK
The experiment in a line: EMSA. The note with it: 20 mM Tris-HCl pH 7.5, 100 mM MgCl2, 150 mM KCl, 50 mM EDTA, 12.5% glycerol, 250 uM DTT, 830 ng/mL poly(dI-dC), 250 ng/mL BSA, 50 nM DNA; room temperature ….

“TGTATATTACCTTGCTTAATATTATATTGTGTAAAATATAATTGCACACAATTAAATATAGGTCAATTATTTTCCTTTGTTTTTTATTTAACATAATGGGCGTTATATGAAATTCAAAAAAATGATACTATTTTTGTGATAATTAAATAAATTTTAGGTGAACATAAGTTAAATAGAGCTTATATCGGCC (double strand) [Pohr-p]”: the binding entry is on record as “binds more weakly”.
